Data: the nanobody polyreactivity screen of Harvey et al. (2022)

Assay: yeast display, Sf9 membrane polyspecificity reagent, FACS + sequencing; frameworks hold sequencing errors
How it was run: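 A nanobody's polyreactivity label depends on the gate it was sorted from. Yeast display cells were stained with 10% biotinylated, detergent-solubilized Sf9 membrane reagent for 1 hour at 4 °C, enriched on streptavidin microbeads and sorted by FACS. The low and high (top ~1%) gates were set on anti-HA fluorescence for expression and streptavidin fluorescence for reagent binding.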

Row | Sequence | polyreactivity (PSR sort gate)
1 | QVQLVESGGGLVQAGGSLRLSCAASGSIFPQYAMGWYRQAPGKERELVASITDSGGRTYYADSVKGRFTISRDNAKNTVYLQMHSLKPEDTAVYYCAAVSLWWSDYYFVEYDYWGQGTQVTVSS | high polyreactivity
2 | QVQLVESGGGLVQAGGSLRLSCAASGSIFPQYAMGWYRQAPGTERELVDAITWSGSRTRYADSVKGRFTISRDNAKNTVYLQMNSLKPEDTAVYYCAARFNGQTYYYCGQGTQVTVSS | high polyreactivity
3 | QVQLVESGGGLVQAGGSLRLSCAASGSIFPRYAMGWYRQAPGKEREFVAAITGSGSSTYYADSVKGRFTISRDNAKNTVYLQMNSLKPEDTAVYYCAARKARPPFPHPFDYYWGQGTQVTVSS | low polyreactivity
4 | QVQLVESGGGLVQAGGSLRLSCAASGSIFPSNAMGWYRQAPGKERELVAGITRGGSTNYADSVKGRFTISRDNAKNTVYLQMNSLKPEDTAVYYCAADSGFDTAPYDYWGQGTQVTVSS | low polyreactivity
5 | QVQLVESGGGLVQAGGSLRLSCAASGSIFPSNVMGSYRQAPGKERELVAAISNTGSTNYADSVKGRFTISRDNAKNTVYLQMNSLKPEDTAVYYCNADASYGFWSLLDYDYWGQGTQVTVSS | low polyreactivity
6 | QVQLVESGGGLVQAGGSLRLSCAASGSIFPSYAMGWYRQAPGKERELVATISGSGTRTYYADSVKGRFTISRDNAKNTVYVQMNSLKPEDTAVYDCARLPPGDMDYWGQGTQVTVSS | low polyreactivity
7 | QVQLVESGGGLVQAGGSLRLSCAASGSIFPSYAMGWYRQAPGQERELVATIGRGGTTNYADSVKGRFTISRDNAKNTVYLQMNSLKPEDTAVYYCNAERIWRYKYGYDYWGQGTQVNVSS | high polyreactivity
8 | QVQLVESGGGLVQAGGSLRLSCAASGSIFPTYAMGWYRQAPGKERELVAAIRSGSNTYYADSVKGRFTISRDNAKNTVYLQMNSLKPEDTAVYYCNVGPQRKYPGRRTVPFGYWGQGTQVTVSS | low polyreactivity
9 | QVQLVESGGGLVQAGGSLRLSCAASGSIFPVYAMGWYRQAHGKVREFVASIRWRGGSTSYADSVKGRFTISRDNAKNTVYLQMNSLKPEETAVYYCNAVYYSWSQSARFDYWGQGTQVTVSS | low polyreactivity
10 | QVQLVESGGGLVQAGGSLRLSCAASGSIFPVYAMGWYRQAPGKDRELVAAISFSTGSTYYADSVKGRFTISRDNAKNTVYLQMNSLKPEDTAVFYCAKYDYTDYEYWGQGTQVTVSS | high polyreactivity
11 | QVQLVESGGGLVQAGGSLRLSCAASGSIFPVYAMGWYRQAPGKERELVAAISSRGGTTYYADSVKGRFTISRDNAKNTVYLQMNSLKPEDTAVYYCAATRSGKYYGTRRKYGYWGQGTQVTVSS | high polyreactivity
12 | QVQLVESGGGLVQAGGSLRLSCAASGSIFPVYAMGWYRQAPGKERELVASISTGGSTYYADSVKGRFTISRDNAKNTVYLQMNSLKPEDTAVYYCAATGWAYGYGYGYWGQGTQVTVSS | low polyreactivity
13 | QVQLVESGGGLVQAGGSLRLSCAASGSIFPWNTMGWYRQAPGKERELVARISTSGASTYYADSVKGRFTISRDNAKYTVYLQMNSLKQEDTAVYFCAKVRHYGGRSWWYYYWGQGTQVTVSS | high polyreactivity
14 | QVQLVESGGGLVQAGGSLRLSCAASGSIFPWYAMGWYRQAPGKERELVAAITISGGSTHYADTVKGRFTISRDNAKYTVYLQMNSLKPEDTAVYYCATPRYPSYDYWGQGTQVTVSS | low polyreactivity
15 | QVQLVESGGGLVQAGGSLRLSCAASGSIFPYAMGWYRQSPGKERELVAAITRSGASTYYADSVKGRFTISRDNAKNTVYLQMNSLKPEDTAVYYCAAYALRGVRYPYRVDFYYWGQGTQVTVSS | high polyreactivity
16 | QVQLVESGGGLVQAGGSLRLSCAASGSIFPYAMGWYRQSPGKQRQLVAVISWSGASTYYADSVKGRFTISRDNAKNTVDLQMNSLKPEDTAVYYCAVYRYYKLVHLYGYDYWGQGTQVTVSS | high polyreactivity
17 | QVQLVESGGGLVQAGGSLRLSCAASGSIFPYNAMGWYRQAPGKEREFVAAITYSGGSTYYADSVKGRFTISRDNAKNTVYLQMNSLKPEDTAVYYCAAGYSSRGSRDGYWGQGTQVTVSS | low polyreactivity
18 | QVQLVESGGGLVQAGGSLRLSCAASGSIFPYNVMGWYRQAPGKERELVAAISTRGGRTYYADSVKGRFTISRDNAKNTVYLQMNSLKPEDTAVYYCNTVVLRYLYNYWGQGTQVTVSS | high polyreactivity
19 | QVQLVESGGGLVQAGGSLRLSCAASGSIFQDYAMGWSRQAPGKERELVAVITRGGSKYYADSVKGRFTISRDNAKNTVYLQMNSLKPEDTAVYYCNTRRGRGGKYDYWGHGTQVTVSS | low polyreactivity
20 | QVQLVESGGGLVQAGGSLRLSCAASGSIFQGNAMGWYRQAPGKERELVAAITYSGGSTYYADSVKGRFTISRDNAKNTVYLQMHSLKREDTAVYYCAAFFPSDLVDGYNYWGQGTQVTVSS | low polyreactivity
21 | QVQLVESGGGLVQAGGSLRLSCAASGSIFQGNVMGWSRQAPGKERELVAAISSGGRTYYADSVKGRFTISRDNAKNTVYLQMNSLKPEDTAVYYCAASWLTSYAYIMYYWGQGTQVTVSS | high polyreactivity
22 | QVQLVESGGGLVQAGGSLRLSCAASGSIFQIYAMGWYRQAPGKESELVATINRGDNTYYADSVKGRFTISRDNAKNTVYLQMHSLTPEDSAVYYCNVDRQVITGRYIGDYWGQGTLVTVSS | low polyreactivity

Row | Sequence | polyreactivity (PSR sort gate)
23 | QVQLVESGGGLVQAGGSLRLSCAASGSIFQPYAMGWYRQAPGKERELVAAISIGDSTNYADSVKGRFTISRDNAKNTVYLQMNSLKPADTAVYYCNTTGEYYDYWGQATQVTVSS | low polyreactivity
24 | QVQLVESGGGLVQAGGSLRLSCAASGSIFQQYAMGWYRQAPGKERELVAAISWGDGSTYYADSVKGRFTISRDNAKNTVYLQMNSLKPEDTAVYYCNAYASAPLWSLEDDYWGQGTQVTVSS | low polyreactivity
25 | QVQLVESGGGLVQAGGSLRLSCAASGSIFQQYAMGWYRQAPGKERELVAAISYSGGTTYYADSVKGRFTISRDNAKNTVYLQMNSLKPEDTAVYYCAAYYPSGSYDYYWGQGTQVTVSS | low polyreactivity
26 | QVQLVESGGGLVQAGGSLRLSCAASGSIFQRNAMGWYRQAPGKERELVAAISRSGGRTYYADSVKGRFTISRDNAKNTVYLQMNSLKPEDTAVYYCAADSPYIQNRFEYWGQGTQVTVSS | high polyreactivity
27 | QVQLVESGGGLVQAGGSLRLSCAASGSIFQRYAMGWYRQAPGKEREFVAAISGRGGSTYYADSVKGRFTISRDNAKNTVYLQMNSLKPEDTAVYYCADDSSRFYGRPRYYYWGQGTQVTVSS | high polyreactivity
28 | QVQLVESGGGLVQAGGSLRLSCAASGSIFQRYAMGWYRQAPGKERELVAGINWSGGRTYYADSVKGRFTISRDNAKNTVYLQMNSLKPEDTAVYYCAKPVERYTYSLYQQYDYWGQGTQVTVSS | high polyreactivity
29 | QVQLVESGGGLVQAGGSLRLSCAASGSIFQSNAMGWYRQAPGKEREFVAAITASGGRTYYADSVKGRFTISRDNAKNTDYLLMNSLKPEDTAVYFCAARGRYYWGGRSYDYWGHGTQVTVSS | high polyreactivity
30 | QVQLVESGGGLVQAGGSLRLSCAASGSIFQSNAMGWYRQAPGKERELFAAISWNTGSTYADSVKGRFTISRDNAKNTVYLQMNSLKPEDTAVYYCAADRSHAYYRKNRVDYWGQGTQVTVSS | low polyreactivity
31 | QVQLVESGGGLVQAGGSLRLSCAASGSIFQTYAMGWYRQAPGKERELVAAIDGGDTTNYADSVKGRFTISRDNAKNTVYLQMNSLKPEDTAVYYCNADWGQVTQVTVSS | low polyreactivity
32 | QVQLVESGGGLVQAGGSLRLSCAASGSIFQWNAMGWYRQAPGKERELVAAISTRGGRTYYADSVKGRFTISRDNAKNTDYLQMNSLKPEDTAVYYCAKQYGSYGRYYKYYYWGQGTQVTVSS | high polyreactivity
33 | QVQLVESGGGLVQAGGSLRLSCAASGSIFQYYAMGWYRQAPGKERELVAAISSGGRTNYADSVKGRFTISRDNAKNTDYLQMNSLKPEDTAVYYCAAARYYYQVYRWEYDYWGQGTQVTVSS | high polyreactivity
34 | QVQLVESGGGLVQAGGSLRLSCAASGSIFRANTMGWYRQAPGKERELVAVISSGGRTYYADSVKGRFTISRDNAKNTVYLQMNSLKPEDTAVYYCAAKRGYGYGYWGQGTQVTVSS | high polyreactivity
35 | QVQLVESGGGLVQAGGSLRLSCAASGSIFRAYAMGWYRQAHGKERELVAAITGNGARTYYADSVKGRFTISRDNAKNTVYLQMNSLKPEDTAVYYCAKRGNRQHRWWYDYWGQGTQVTVSS | low polyreactivity
36 | QVQLVESGGGLVQAGGSLRLSCAASGSIFRAYAMGWYRQAPGKERELVAAITNGGGTTYYADSVKGRFTISRDNAKNTVYLQMNSLKPEDTAVYYCAADGAYSYASYDYWGQGTQVTVSS | low polyreactivity
37 | QVQLVESGGGLVQAGGSLRLSCAASGSIFRAYAMGWYRQAPGKERELVADISRSGGSTYYADSVKGRFTISRDNAKNTVYLQLNSLKPEDTAVYYCAAVFYLYSNLYGEYDYWGQGTQVTVSS | low polyreactivity
38 | QVQLVESGGGLVQAGGSLRLSCAASGSIFRAYAMGWYRQAPGKERELVADISRSGGSTYYADSVKGRFTISRDNAKNTVYLQMNSLKPEDTAVYYCAAVFYLYSNLYGEYDYWGQGTQVTVSS | low polyreactivity
39 | QVQLVESGGGLVQAGGSLRLSCAASGSIFRDNTMGWYRQAPGKERELVAAISYSGGGTYYADSVKGRVTISRDNAKNTVYLQMNSLKPEDTAVYYCAKRTYPWYYREIPYGYWGQGTQVTVSS | high polyreactivity
40 | QVQLVESGGGLVQAGGSLRLSCAASGSIFREYVMGWYRQAPGKEREFVAAISVSGGSTNYADSVKGRFTISRDNAKNTVYLQMNSLKPEDTAVYYCNADGVLTGYSRGGWYYWGQGTQVTVSS | low polyreactivity
41 | QVQLVESGGGLVQAGGSLRLSCAASGSIFRFNPMGWYRQAPGKERELVAAISWSGGLTYYADSVKGRFTISRDNAKNTVSLQMNSLKPEDTAVYYCNAGRRYPLRYDYWGQGTQVTVSS | high polyreactivity
42 | QVQLVESGGGLVQAGGSLRLSCAASGSIFRFNVMGWYRQAPGKERELVAAITRGDSTNYADSVKGRFTISRDNAKNTVYLQMNSLKPEDTAVYYCAAGYYYYLRDHDYWGQGTQVTVSS | low polyreactivity
43 | QVQLVESGGGLVQAGGSLRLSCAASGSIFRFYAMGWYIQAPGKERELVAAIRFSGGNTYYADSVKGRFTISCDNAKNTVYLQMNSLKPEDTAVYYCAKYRRVKPKRYDYDYWGQGTQVTVSS | high polyreactivity
